Measurements as given in patent US12042530B2, “Target peptides for immunotherapy and diagnostics” (University of Virginia Patent Foundation, priority 2012, dated 2024).
Non-standard residues stand in square brackets, D forms with d. No end group written: not given here. pT = C[C@@H](OP(=O)(O)O)[C@H](N)C(=O)O; pS = N[C@@H](COP(=O)(O)O)C(=O)O

Key:
[1] = molecular target: T1, HLA-B*0702 (HLA-B7) peptide complexes (Homo sapiens, UniProt P01889); assay: HLA-B*0702 phosphopeptides associated with leukemia samples (isolation of HLA-associated peptides); conditions: for Copies/cell class, ALL1: acute lymphoblastic leukemia sample ALL1; for Copies/cell class, HCL1: hairy cell leukemia sample HCL1; for Copies/cell class, B Cell: healthy B cells; for Copies/cell class, T Cell: healthy T cells; for Copies/cell class, BM: healthy bone marrow
T1 construct: endogenous in cells; host or cells: JY B-lymphoblastoid line; primary ALL, CLL, HCL, AML samples; bone marrow; healthy B and T cells
Text: To identify naturally processed tumor-associated phosphopeptides, HLA-A*0201 (HLA-A2) and HLA-B*0702 (HLA-B7) peptide complexes from four (4) chronic lymphocytic leukemia (CLL) tumor samples, a mantle cell lymphoma sample (MCL), one acute lymphoblastic leukemia (ALL), and an acute myeloid leukemia (AML) sample, in addition to healthy splenic T and B-cells and the cultured lymphoblastoid cell line JY were isolated. These efforts yielded 10 HLA-A2-restricted and 86 HLA-B7-restricted phosphopeptide antigens (see Tables 6 and 7).
All cell lines were grown at 37° C. with 5% CO2 in growth medium consisting of RPMI 1640 supplemented with 10% FCS and two mM L-glutamine. Blood or leukapheresis samples were taken from patients with high-burden leukemia in heparin. Tumor cells were recovered by layering the blood over density gradient (Ficoll) and collecting the tumor layer following centrifugation. The tumor was washed in tris-buffered saline (TBS). The purity of the tumor was assessed using flow cytometry and was >98% pure in all cases. For healthy T and B-cell populations, a normal spleen sample processed and tonsil sample was collected and lymphocytes released through mechanical disruption. Mononuclear cells were isolated using a density gradient and 10^9 T cells isolated using anti-CD19 or anti-CD3 microbeads (Miltenyi Biotec Inc., Auburn, California, United States of America) with purity >98% were obtained. Bone marrow sample was obtained from an elective orthopedic procedure and red cell-depleted using hypotonic lysis. This sample was not processed further.
Class I MHC molecules were immunoaffinity purified from the JY cell line or from primary tumor samples, and their associated peptides were extracted as previously described in Zarling et al., 2006. Approximately 1.2-14×10^9 cells were lysed in a solution containing 20 mM Tris-HCl (pH 8.0), 150 mM NaCl, 1% CHAPS, one mM PMSF, five μg/mL aprotinin, 10 μg/mL leupeptin, 10 μg/mL pepstatin A, 1 μg/ml calyculin A, and phosphatase inhibitor (cocktails I and II; Sigma-Aldrich). The mixture was subjected to centrifugation and the resulting supernatant was passed over protein A sepharose pre-loaded with the HLA-A2-specific antibody BB7.2 or HLA-B7-specific antibody MEL Peptides were eluted from the purified class I MHC molecules with 10% acetic acid.

HLA-B*0702 = molecular target: T2, HLA-B*0702 (Homo sapiens, UniProt P01889); assay: Phosphopeptides presented in association with class I molecules (HLA-B*0702) on cancer cells: melanoma and/or leukemia; parameters: key: Melanoma (M); Leukemia (L); L/M: Melanoma (M) and/or Leukemia (L); conditions: cancer type on which the HLA-B*0702 phosphopeptide is presented
T2 construct: endogenous in cells; host or cells: melanoma and/or leukemia cells

Substance | Copies/cell class, AML1 [1] | Copies/cell class, CLL2 [1] | Copies/cell class, JY [1] | Copies/cell class, ALL1 [1] | Copies/cell class, HCL1 [1] | L/M (HLA-B*0702) | Copies/cell class, CLL4 [1] | Copies/cell class, B Cell [1] | Copies/cell class, T Cell [1] | Copies/cell class, BM [1]
288 (KPPYRSH[pS]L; listed as Homo sapiens) [compound 288] | 1 (1 indicates <1 copy/cell) | 1 (1 indicates <1 copy/cell) | 2 (2 indicates 1-5 copies/cell) | 2 (2 indicates 1-5 copies/cell) | 2 (2 indicates 1-5 copies/cell) | L | – | – | – | –
289 (KPQTRGK[pT]F; listed as Homo sapiens) [compound 289] | – | – | – | 1 (1 indicates <1 copy/cell) | 1 (1 indicates <1 copy/cell) | L | – | – | – | –
291 (KPR[pS]PDHVL; listed as Homo sapiens) [compound 291] | – | 1 (1 indicates <1 copy/cell) | – | 1 (1 indicates <1 copy/cell) | 1 (1 indicates <1 copy/cell) | L | 1 (1 indicates <1 copy/cell) | – | – | –
295 (KPR[pS]PVVEL; listed as Homo sapiens) [compound 295] | 4 (4 indicates >25 copies per cell) | 4 (4 indicates >25 copies per cell) | 4 (4 indicates >25 copies per cell) | 2 (2 indicates 1-5 copies/cell) | 4 (4 indicates >25 copies per cell) | L/M | 4 (4 indicates >25 copies per cell) | – | – | –
296 (KPY[pS]PLASL; listed as Homo sapiens) [compound 296] | – | 1 (1 indicates <1 copy/cell) | 4 (4 indicates >25 copies per cell) | 2 (2 indicates 1-5 copies/cell) | 2 (2 indicates 1-5 copies/cell) | L | – | 2 (2 indicates 1-5 copies/cell) | 3 (3 indicates 6-25 copies per cell) | –
297 (LPA[pS]PRARL; listed as Homo sapiens) [compound 297] | 1 (1 indicates <1 copy/cell) | – | – | – | – | L | – | – | – | –
302 (QPR[pS]PGPDYSL; listed as Homo sapiens) [compound 302] | 3 (3 indicates 6-25 copies per cell) | – | – | – | – | L | – | – | – | –
305 (RAP[pS]PSSRM; listed as Homo sapiens) [compound 305] | – | – | – | 4 (4 indicates >25 copies per cell) | – | L | – | 1 (1 indicates <1 copy/cell) | – | –
306 (RPAK[pS]MDSL; listed as Homo sapiens) [compound 306] | – | 2 (2 indicates 1-5 copies/cell) | 4 (4 indicates >25 copies per cell) | 2 (2 indicates 1-5 copies/cell) | 1 (1 indicates <1 copy/cell) | L | – | 2 (2 indicates 1-5 copies/cell) | 3 (3 indicates 6-25 copies per cell) | –
307 (RPA[pS]AGAML; listed as Homo sapiens) [compound 307] | 1 (1 indicates <1 copy/cell) | 2 (2 indicates 1-5 copies/cell) | 4 (4 indicates >25 copies per cell) | 4 (4 indicates >25 copies per cell) | 2 (2 indicates 1-5 copies/cell) | L | – | 1 (1 indicates <1 copy/cell) | 3 (3 indicates 6-25 copies per cell) | 1 (1 indicates <1 copy/cell)
308 (RPA[pS]ARAQPGL; listed as Homo sapiens) [compound 308] | 2 (2 indicates 1-5 copies/cell) | 3 (3 indicates 6-25 copies per cell) | 4 (4 indicates >25 copies per cell) | 1 (1 indicates <1 copy/cell) | 2 (2 indicates 1-5 copies/cell) | L/M | 2 (2 indicates 1-5 copies/cell) | – | – | –
309 (RPA[pS]PAAKL; listed as Homo sapiens) [compound 309] | 1 (1 indicates <1 copy/cell) | 2 (2 indicates 1-5 copies/cell) | 4 (4 indicates >25 copies per cell) | 2 (2 indicates 1-5 copies/cell) | 1 (1 indicates <1 copy/cell) | M | 1 (1 indicates <1 copy/cell) | 1 (1 indicates <1 copy/cell) | 1 (1 indicates <1 copy/cell) | –
310 (RPA[pT]GGPGVA; listed as Homo sapiens) [compound 310] | – | – | – | 1 (1 indicates <1 copy/cell) | – | L | – | – | – | –
312 (RPD[pS]RLGKTEL; listed as Homo sapiens) [compound 312] | 2 (2 indicates 1-5 copies/cell) | 1 (1 indicates <1 copy/cell) | 4 (4 indicates >25 copies per cell) | 2 (2 indicates 1-5 copies/cell) | 1 (1 indicates <1 copy/cell) | L | – | – | – | –
313 (RPF[pS]PREAL; listed as Homo sapiens) [compound 313] | – | – | – | – | 4 (4 indicates >25 copies per cell) | L | 4 (4 indicates >25 copies per cell) | 4 (4 indicates >25 copies per cell) | 4 (4 indicates >25 copies per cell) | –
314 (RPH[pS]PEKAF; listed as Homo sapiens) [compound 314] | 1 (1 indicates <1 copy/cell) | 1 (1 indicates <1 copy/cell) | 3 (3 indicates 6-25 copies per cell) | 1 (1 indicates <1 copy/cell) | 1 (1 indicates <1 copy/cell) | L | – | – | – | –
315 (RPI[pT]PPRNSA; listed as Homo sapiens) [compound 315] | – | – | – | 1 (1 indicates <1 copy/cell) | – | L | – | – | – | –
317 (RPKLS[pS]PAL; listed as Homo sapiens) [compound 317] | 1 (1 indicates <1 copy/cell) | – | – | – | – | L | – | – | – | –
318 (RPKPSS[pS]PV; listed as Homo sapiens) [compound 318] | – | 1 (1 indicates <1 copy/cell) | – | 2 (2 indicates 1-5 copies/cell) | – | L | – | – | – | 1 (1 indicates <1 copy/cell)
319 (RPN[pS]PSPTAL; listed as Homo sapiens) [compound 319] | – | 3 (3 indicates 6-25 copies per cell) | 4 (4 indicates >25 copies per cell) | 1 (1 indicates <1 copy/cell) | 1 (1 indicates <1 copy/cell) | L | 2 (2 indicates 1-5 copies/cell) | 1 (1 indicates <1 copy/cell) | 1 (1 indicates <1 copy/cell) | –
320 (RPPPPPD[pT]PP; listed as Homo sapiens) [compound 320] | – | – | – | 1 (1 indicates <1 copy/cell) | – | L | – | – | – | –
321 (RPP[pS]PGPVL; listed as Homo sapiens) [compound 321] | – | 1 (1 indicates <1 copy/cell) | 4 (4 indicates >25 copies per cell) | 2 (2 indicates 1-5 copies/cell) | 1 (1 indicates <1 copy/cell) | L | 1 (1 indicates <1 copy/cell) | – | 2 (2 indicates 1-5 copies/cell) | –
322 (RPP[pS]SEFLDL; listed as Homo sapiens) [compound 322] | – | 1 (1 indicates <1 copy/cell) | – | 3 (3 indicates 6-25 copies per cell) | 1 (1 indicates <1 copy/cell) | L | – | 2 (2 indicates 1-5 copies/cell) | 2 (2 indicates 1-5 copies/cell) | –
